For one substance, Kd results are on record in US20090104178A1.

The target of one assay is APRIL (TNFL13). Description: SPR. Background: SPR reads the build-up and loss of mass on a sensor chip optically.
For the next assay, the target named is LIGHT (TNFL14). Description: SPR.

One may read the Kd as the constant that tells how readily two partners part at equilibrium. A higher Kd goes with a looser complex. For the substance “Purified recombinant EV CrmD protein (receptor)”, the Kd with APRIL (TNFL13) was determined as 110 µM; in the assay with LIGHT (TNFL14) it was 0.14 µM.
